This note sets out measurements from patent publication US20120301476A1 (TORAY INDUSTRIES, published 2012).

Test [1] addresses T1, human CAPRIN-1 protein on the cell surfaces of human cancer cell lines and in human cancer tissues (human, UniProt Q14444 2-709).
T1 construct: whole, on cells; Endogenous protein of human cancer cell lines (flow cytometry, ADCC, CDC) and of human cancer tissue sections (immunohistochemistry); also called CAPRIN-1 protein expressed on the cell membrane surfaces
T1 sequence (looked up): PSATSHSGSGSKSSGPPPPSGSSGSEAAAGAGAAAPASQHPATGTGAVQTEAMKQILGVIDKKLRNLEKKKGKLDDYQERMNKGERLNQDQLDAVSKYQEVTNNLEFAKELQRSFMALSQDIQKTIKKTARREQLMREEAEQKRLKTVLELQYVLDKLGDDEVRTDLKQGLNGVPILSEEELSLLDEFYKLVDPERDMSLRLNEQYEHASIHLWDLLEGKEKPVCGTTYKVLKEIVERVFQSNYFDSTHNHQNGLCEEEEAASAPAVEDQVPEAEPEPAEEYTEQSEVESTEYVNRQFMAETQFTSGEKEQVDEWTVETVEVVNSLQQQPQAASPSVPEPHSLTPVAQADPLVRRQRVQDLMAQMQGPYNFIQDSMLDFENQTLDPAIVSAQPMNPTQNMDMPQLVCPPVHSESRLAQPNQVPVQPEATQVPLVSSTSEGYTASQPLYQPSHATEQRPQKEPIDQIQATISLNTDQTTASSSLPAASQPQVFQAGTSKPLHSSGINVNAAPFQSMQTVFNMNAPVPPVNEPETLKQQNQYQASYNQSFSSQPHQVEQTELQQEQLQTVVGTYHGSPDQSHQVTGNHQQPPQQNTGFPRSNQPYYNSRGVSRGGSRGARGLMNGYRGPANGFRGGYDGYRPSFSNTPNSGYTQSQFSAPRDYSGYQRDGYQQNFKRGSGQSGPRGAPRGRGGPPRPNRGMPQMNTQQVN
The test is described as follows: flow cytometry on the listed human cancer cell lines, culture supernatant, against negative control. The protocol: 10⁶ cells of each cell line were centrifuged in a 1.5 ml microcentrifuge tube. Each cell culture supernatant (100 μl) of CHO-K1 cells containing #1 obtained in (2) above and hybridomas producing #2, #3, #4, #5, and #6 obtained in Example 3 was added and then left to stand on ice for 1 hour. After washing with PBS, a FITC-labeled goat anti-human IgG (H+L) antibody (SouthernBiotech) and a FITC-labeled anti-mouse IgG (H+L) antibody (Invitrogen) diluted 500-fold with PBS containing 0.1% FBS were added and then left to stand on ice for 1 hour. After washing with PBS, fluorescence intensity was measured using a FACS Calibur (Becton, Dickinson). Meanwhile, procedures similar to the above were performed using a culture supernatant of CHO-K1 cells into which no antibody gene had been introduced and medium for culturing hybridomas, so that a negative control sample was prepared. […] Specifically, when the antibody #1 was used, fluorescence intensity was enhanced to 4700% in the case of SK-BR-3 and 5500% in the case of MDA-MB-231V. Also, when the antibodies #2, #3, #4, #5, and #6 were used, fluorescence intensity was enhanced. […] The percentage of enhancement in the above fluorescence intensity was expressed as percentage of increase in mean fluorescence intensity (MFI level) in each type of cell and calculated by the following formula.

In test [2] the target is T2, peptide of SEQ ID NO: 69 (partial sequence in the polypeptide of SEQ ID NO: 37) (human).
T2 peptide: QQPQAASPSVPE
As to the kind of experiment: ELISA on immobilised synthetic peptides. The protocol: Each peptide was dissolved in 0.1M sodium carbonate buffer (pH 9.6) at a concentration of 30 μg/ml, added to a 96-well plate (Nunc, Product No. 436006) at 100 μl per well, and then left to stand at 4° C. overnight. The solution was discarded, 10 mM ethanolamine/0.1M sodium carbonate buffer (PH 9.6) was added at 200 μl per well, and then the plate was left to stand at room temperature for 1 hour. The solution was discarded, the plate was washed twice with PBS (PBST) containing 0.5% Tween20, so that the plate with each peptide immobilized thereto was prepared.
A cell culture supernatant containing the human-chicken chimeric monoclonal antibody (#1) and the mouse monoclonal antibodies (#2, #3, #4, #5, and #6) obtained in Example 4 (2) was added to the plate at 50 μl per well. After 1 hour of shaking at room temperature, the solution was removed, and then the plate was washed three times with PBST. Next, an HRP-labeled anti-human IgG (Invitrogen) antibody diluted 3000- to 4000-fold with PBST (a secondary antibody solution) was added to each well of the human-chicken chimeric monoclonal antibody and an HRP-labeled anti-mouse IgG (Invitrogen) antibody diluted 3000- to 4000-fold with PBST (a secondary antibody solution) was added to each well of the mouse monoclonal antibody, at 50 μl per well, and then the solution was removed, followed by six times of washing with PBST.
A TMB substrate solution (Thermo) was added at 100 μl per well, and the plate was left to stand for 15 to 30 minutes for coloring reaction. After color development, 1N sulfuric acid was added at 100 μl per well to stop the reaction and then absorbances at 450 nm and 595 nm were measured using an absorption spectrometer. As a result, the polypeptide of SEQ ID NO: 37 was identified as a CAPRIN-1 partial sequence that is recognized by all of the anti-CAPRIN-1 monoclonal antibodies #1 to #6. Furthermore, the peptide of SEQ ID NO: 69 was identified as a partial sequence in the above polypeptide of SEQ ID NO: 37, which is recognized by the monoclonal antibodies #1, #4, and #5. […]
A general note: An ELISA detects its analyte on a solid surface through an enzyme-linked reagent.

Where only a bound is given, the exact number is not on record here.

B1: human-chicken chimeric antibody #1 having the chicken monoclonal antibody #1 variable region (antibody, V domains shown)
VH: AVTLDESGGGLQMSRGGLSLVCKASGFDFSSYQMNWIRQAPGKGLEFVAAINKFGNSTGHGAAVKGRVTISRDNGQSTVRLQLNNLRAEDTAIYFCTKHAYGYCGSGTWCAAGEIDAWGHGTEVIVSS
VL: QAASTQPSSVSANPGETVEITCSGGGSYSYGWFQQKSPGSAPVTVIYYNNKRPSDIPSRFSGSKSGSTGTLTITGVQADDEAVYYCGSGDSTDTAVFGAGTTLTVLG
notes: also called anti-CAPRIN-1 antibody #1; human-chicken chimeric monoclonal antibody (#1); not shown: human IgG1 H-chain constant region; human IgG1 L-chain constant region
On to B1, for which the “percentage of increase in mean fluorescence intensity” value in test [1] is not below 20%. The binding result in test [2] is reported as “binds”.
